Data as given in PMC6786648.

Target: EXP1 with G to L point mutations of the first glycine residues of the two GXXG motifs of the TM domain, Ty-tagged (P. falciparum) (UniProt Q8IIF0)
Test: cross-linking; in vivo: parasite cultures in PBS with 1% formaldehyde (PFA), 37°C, 30 minutes, quenched with 30 mM Tris-HCl pH 8.0; extracts of treated and untreated cells immunoblotted with α-Ty

EXP1 with G to L point mutations of the first glycine residues of the two GXXG motifs of the TM domain, Ty-tagged (from UniProt Q8IIF0 1-162) (natural protein)
stoichiometry N: 2
